Test results taken from publication PMC10397247.

What was measured:
4H2190-AA = molecular target: T1, 4H2190-AA; assay: two-hybrid library CCmax;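 further: natural log of median RNA to DNA barcode read ratio; higher means stronger binding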
T1 chain: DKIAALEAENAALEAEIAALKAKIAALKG

4H2277-AA = molecular target: T2, 4H2277-AA; assay: two-hybrid library CCmax; details: mean of both orientations;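 further: natural log of median RNA to DNA barcode read ratio; higher means stronger binding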
T2 chain: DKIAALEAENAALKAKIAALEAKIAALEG

4H234-AA = molecular target: T3, 4H234-AA; assay: two-hybrid library CCmax; details: mean of both orientations;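 further: natural log of median RNA to DNA barcode read ratio; higher means stronger binding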
T3 chain: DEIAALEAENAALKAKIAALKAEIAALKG

4H2354-AA = molecular target: T4, 4H2354-AA; assay: two-hybrid library CCmax; details: mean of both orientations;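 further: natural log of median RNA to DNA barcode read ratio; higher means stronger binding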
T4 chain: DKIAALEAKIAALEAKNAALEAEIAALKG

4H2393-AA = molecular target: T5, 4H2393-AA; assay: two-hybrid library CCmax; details: mean of both orientations
T5 chain: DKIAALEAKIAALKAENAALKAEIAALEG

4H2466-AA = molecular target: T6, 4H2466-AA; assay: two-hybrid library CCmax; details: mean of both orientations
T6 chain: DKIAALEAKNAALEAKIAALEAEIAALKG

4H2505-AA = molecular target: T7, 4H2505-AA; assay: two-hybrid library CCmax; details: mean of both orientations
T7 chain: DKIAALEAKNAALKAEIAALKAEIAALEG

4H2575-AA = molecular target: T8, 4H2575-AA; assay: two-hybrid library CCmax; details: mean of both orientations
T8 chain: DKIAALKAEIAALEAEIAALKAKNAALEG

4H2617-AA = molecular target: T9, 4H2617-AA; assay: two-hybrid library CCmax; details: mean of both orientations
T9 chain: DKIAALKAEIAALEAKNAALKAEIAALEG

4H2642-AA = molecular target: T10, 4H2642-AA; assay: two-hybrid library CCmax; details: mean of both orientations
T10 chain: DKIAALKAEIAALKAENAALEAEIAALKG

4H2729-AA = molecular target: T11, 4H2729-AA; assay: two-hybrid library CCmax; details: mean of both orientations
T11 chain: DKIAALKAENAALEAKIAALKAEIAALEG

4H2754-AA = molecular target: T12, 4H2754-AA; assay: two-hybrid library CCmax; details: mean of both orientations
T12 chain: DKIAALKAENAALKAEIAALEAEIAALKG

4H2837-AA = molecular target: T13, 4H2837-AA; assay: two-hybrid library CCmax; details: mean of both orientations
T13 chain: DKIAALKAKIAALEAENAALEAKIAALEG

4H2883-AA = molecular target: T14, 4H2883-AA; assay: two-hybrid library CCmax; details: mean of both orientations
T14 chain: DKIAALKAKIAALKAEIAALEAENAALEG

4H2944-AA = molecular target: T15, 4H2944-AA; assay: two-hybrid library CCmax; details: mean of both orientations
T15 chain: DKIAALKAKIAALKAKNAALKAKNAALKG

4H2949-AA = molecular target: T16, 4H2949-AA; assay: two-hybrid library CCmax; details: mean of both orientations
T16 chain: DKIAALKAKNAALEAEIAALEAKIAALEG

4H3112-AA = molecular target: T17, 4H3112-AA; assay: two-hybrid library CCmax; details: mean of both orientations
T17 chain: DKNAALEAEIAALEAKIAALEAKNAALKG

4H317-AA = molecular target: T18, 4H317-AA; assay: two-hybrid library CCmax; details: mean of both orientations
T18 chain: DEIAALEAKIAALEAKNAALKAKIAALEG

4H3343-AA = molecular target: T19, 4H3343-AA; assay: two-hybrid library CCmax; details: mean of both orientations
T19 chain: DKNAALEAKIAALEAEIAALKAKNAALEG

4H335-AA = molecular target: T20, 4H335-AA; assay: two-hybrid library CCmax; details: mean of both orientations
T20 chain: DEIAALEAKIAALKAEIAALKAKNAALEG

4H342-AA = molecular target: T21, 4H342-AA; assay: two-hybrid library CCmax; details: mean of both orientations
T21 chain: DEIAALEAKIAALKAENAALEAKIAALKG

4H3427-AA = molecular target: T22, 4H3427-AA; assay: two-hybrid library CCmax; details: mean of both orientations
T22 chain: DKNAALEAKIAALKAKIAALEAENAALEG

4H3606-AA = molecular target: T23, 4H3606-AA; assay: two-hybrid library CCmax; details: mean of both orientations
T23 chain: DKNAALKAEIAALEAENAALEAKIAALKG

4H3627-AA = molecular target: T24, 4H3627-AA; assay: two-hybrid library CCmax; details: mean of both orientations
T24 chain: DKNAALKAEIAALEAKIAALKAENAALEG

4H3655-AA = molecular target: T25, 4H3655-AA; assay: two-hybrid library CCmax; details: mean of both orientations
T25 chain: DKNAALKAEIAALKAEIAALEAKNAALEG

4H3844-AA = molecular target: T26, 4H3844-AA; assay: two-hybrid library CCmax; details: mean of both orientations
T26 chain: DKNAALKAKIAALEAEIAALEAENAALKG

4H3921-AA = molecular target: T27, 4H3921-AA; assay: two-hybrid library CCmax; details: mean of both orientations
T27 chain: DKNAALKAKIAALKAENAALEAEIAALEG

4H429-AA = molecular target: T28, 4H429-AA; assay: two-hybrid library CCmax; details: mean of both orientations
T28 chain: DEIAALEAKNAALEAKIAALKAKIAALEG

4H454-AA = molecular target: T29, 4H454-AA; assay: two-hybrid library CCmax; details: mean of both orientations
T29 chain: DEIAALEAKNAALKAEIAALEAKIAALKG

4H48-AA = molecular target: T30, 4H48-AA; assay: two-hybrid library CCmax; details: mean of both orientations
T30 chain: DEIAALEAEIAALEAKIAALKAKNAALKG

4H566-AA = molecular target: T31, 4H566-AA; assay: two-hybrid library CCmax; details: mean of both orientations
T31 chain: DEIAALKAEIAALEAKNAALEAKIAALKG

4H605-AA = molecular target: T32, 4H605-AA; assay: two-hybrid library CCmax; details: mean of both orientations
T32 chain: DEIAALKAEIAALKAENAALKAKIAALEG

4H678-AA = molecular target: T33, 4H678-AA; assay: two-hybrid library CCmax; details: mean of both orientations
T33 chain: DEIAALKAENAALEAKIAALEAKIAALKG

4H717-AA = molecular target: T34, 4H717-AA; assay: two-hybrid library CCmax; details: mean of both orientations
T34 chain: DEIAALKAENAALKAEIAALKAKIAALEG

4H780-AA = molecular target: T35, 4H780-AA; assay: two-hybrid library CCmax; details: mean of both orientations
T35 chain: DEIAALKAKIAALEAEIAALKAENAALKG

4H794-AA = molecular target: T36, 4H794-AA; assay: two-hybrid library CCmax; details: mean of both orientations
T36 chain: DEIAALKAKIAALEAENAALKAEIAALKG

4H881-AA = molecular target: T37, 4H881-AA; assay: two-hybrid library CCmax; details: mean of both orientations
T37 chain: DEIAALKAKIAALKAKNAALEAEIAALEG

4H906-AA = molecular target: T38, 4H906-AA; assay: two-hybrid library CCmax; details: mean of both orientations
T38 chain: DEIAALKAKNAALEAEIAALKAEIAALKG

4H993-AA = molecular target: T39, 4H993-AA; assay: two-hybrid library CCmax; details: mean of both orientations
T39 chain: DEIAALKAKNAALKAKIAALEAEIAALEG

4H3041-bA = molecular target: T40, 4H3041-bA; assay: two-hybrid library CCNG1
T40 chain: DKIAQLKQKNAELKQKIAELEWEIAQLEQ

4H3297-bA = molecular target: T41, 4H3297-bA; assay: two-hybrid library CCNG1
T41 chain: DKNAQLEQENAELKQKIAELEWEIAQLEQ

4H3364-bA = molecular target: T42, 4H3364-bA; assay: two-hybrid library CCNG1
T42 chain: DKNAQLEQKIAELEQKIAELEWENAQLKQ

4H3381-bA = molecular target: T43, 4H3381-bA; assay: two-hybrid library CCNG1
T43 chain: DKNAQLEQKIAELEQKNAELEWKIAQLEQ

4H349-bA = molecular target: T44, 4H349-bA; assay: two-hybrid library CCNG1
T44 chain: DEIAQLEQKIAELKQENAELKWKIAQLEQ

4H56-bA = molecular target: T45, 4H56-bA; assay: two-hybrid library CCNG1
T45 chain: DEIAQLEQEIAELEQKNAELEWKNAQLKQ

4H730-bA = molecular target: T46, 4H730-bA; assay: two-hybrid library CCNG1
T46 chain: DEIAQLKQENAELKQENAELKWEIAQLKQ

4H796-bA = molecular target: T47, 4H796-bA; assay: two-hybrid library CCNG1
T47 chain: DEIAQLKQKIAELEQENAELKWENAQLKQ

4H932-bA = molecular target: T48, 4H932-bA; assay: two-hybrid library CCNG1
T48 chain: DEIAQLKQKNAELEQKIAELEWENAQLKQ

4H949-bA = molecular target: T49, 4H949-bA; assay: two-hybrid library CCNG1
T49 chain: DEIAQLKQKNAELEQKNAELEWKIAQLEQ

DKIAALEAENAALEAEIAALKAKIAALKG [4H2190-AA]
interaction score (4H2190-AA): 2.19 | interaction score (4H2277-AA): 1.06 | interaction score (4H234-AA): 1.66 | interaction score (4H2354-AA): -0.303 | interaction score (4H2393-AA): 0.996 | interaction score (4H2466-AA): 0.489 | interaction score (4H2505-AA): 2.21 | interaction score (4H2575-AA): -0.718 | interaction score (4H2617-AA): 0.788 | interaction score (4H2642-AA): -0.738 | interaction score (4H2729-AA): 2.26 | interaction score (4H2754-AA): 2.3 | interaction score (4H2837-AA): -1.55 | interaction score (4H2883-AA): 0.596 | interaction score (4H2944-AA): -1.51 | interaction score (4H2949-AA): 2.07 | interaction score (4H3112-AA): -0.916 | interaction score (4H317-AA): 2.09 | interaction score (4H3343-AA): -1.32 | interaction score (4H335-AA): 0.22 | interaction score (4H342-AA): 0.437 | interaction score (4H3427-AA): -1.15 | interaction score (4H3606-AA): -0.529 | interaction score (4H3627-AA): -0.558 | interaction score (4H3655-AA): 1.73 | interaction score (4H3844-AA): 0.147 | interaction score (4H3921-AA): -1.21 | interaction score (4H429-AA): 1.95 | interaction score (4H454-AA): 1.72 | interaction score (4H48-AA): -0.0631 | interaction score (4H566-AA): 0.26 | interaction score (4H605-AA): -1.55 | interaction score (4H678-AA): -0.81 | interaction score (4H717-AA): 1.16 | interaction score (4H780-AA): -1.55 | interaction score (4H794-AA): -0.883 | interaction score (4H881-AA): 0.176 | interaction score (4H906-AA): 1.04 | interaction score (4H993-AA): 2.17

DKIAQLKQKNAELKQKIAELEWEIAQLEQ [4H3041-bA]
interaction score (4H3041-bA): 0.985 | interaction score (4H3297-bA): -0.21 | interaction score (4H3364-bA): -1 | interaction score (4H3381-bA): -1.17 | interaction score (4H349-bA): -1.44 | interaction score (4H56-bA): 0.805 | interaction score (4H730-bA): -1.65 | interaction score (4H796-bA): -1.16 | interaction score (4H932-bA): -0.693 | interaction score (4H949-bA): -1.15
